Experimental data as given in patent publication US20190365894A1 (GMAX BIOPHARM, published 2019).
Where a chain is given by its changes, count along the chain named.

T1: human endothelin A receptor (hETAR) (human, UniProt P25101 21-427)
T1 construct: Expressed on stably transfected CHO-DHFR- cells; also called human endothelin receptor; CHO-DHFR-hETAR
T1 sequence: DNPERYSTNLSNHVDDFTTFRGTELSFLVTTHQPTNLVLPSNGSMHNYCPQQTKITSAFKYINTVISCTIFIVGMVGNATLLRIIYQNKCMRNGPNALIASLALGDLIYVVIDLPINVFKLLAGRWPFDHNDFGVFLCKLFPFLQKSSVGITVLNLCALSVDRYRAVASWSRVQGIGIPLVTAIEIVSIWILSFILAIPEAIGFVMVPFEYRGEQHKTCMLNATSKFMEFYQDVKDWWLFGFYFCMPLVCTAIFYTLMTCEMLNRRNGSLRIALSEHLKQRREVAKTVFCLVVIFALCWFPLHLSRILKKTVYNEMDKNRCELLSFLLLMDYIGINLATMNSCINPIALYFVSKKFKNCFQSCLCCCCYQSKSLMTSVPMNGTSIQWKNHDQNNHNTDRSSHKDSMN

B1: anti-ETAR antibody A-12 (antibody, V domains shown)
VH: EVKLVESGGRLVQPGNSLRLSCATSGFTFSDYYMSWVRQTPGRALEWLSFIRNRANGYTTEYSASVKGRFTISRDNSQSILYLHMSTLRPEDSATYYCVRDSYHYGYFDVWGAGTTVTVSS
VL: EIQMTQTPSSLSASLGDRVTITCSASQGINNYLNWYQQKPGGKTRLLIYYTSTLQSGVPSRFSGSGSGTHYSLTISNLEPEDIATYYCQQFSKLRTFGGGTRLEIKR
notes: also called L12H12
B2: anti-ETAR antibody A-9 (antibody, V domains shown)
VH: EVQLQQPGGGLVQPGGSLTLSCATSGFTFSSYGMSWVRQTPAKRLELVATISTNGATANYPDSVKGRFTISRDNAKSTLYLQMRSLKSEDTAMYYCATEKGAMGYWGQGTSVTVSS
VL: DVLMTQTPLSLPVSLGDQASISCRSSQNIVHSTGNTYLEWYLQKPGQSPKLLIYKVSNRFSGVPNRFRGSGSGTDFTLKITRVEAEDLGIYYCFQGSHFPFTFGSGTKLEIKR
B3: anti-ETAR antibody A-7 (antibody, V domains shown)
VH: EVHLVESGGGLVQPGGSLKLSCAASGFTFSTYGMSWVRQTPDKRLELVATINTNGGTTYYRDSVKGRFTISRDNAKNTLYLQMSSLKSDDTAMYYCARDYGAMDYWGQGTSVTVSS
VL: B2 VL with Q18H, N28Y, N35T, K50Q, N65D, R68T, K79R, T81S, I90V, Y92F
notes: also called L7H7
B4: anti-ETAR antibody A-1 (antibody, V domains shown)
VH: QVTLKESGPGILQPSQTLSLTCSFSGFSLTTSGLGVAWIRQPSGKGLEWLAHIWSDGDTRYYPALKNRLTISKDSSSNQVFLKIARVDTADTATYYCARMKDDSLYFDNWGQGTIFTVSS
VL: DILLTQSPAILSVSPGKRVSFSCRASQNIGTSIHWYQQRTNGSPRLLIKYASKSISGISSRFSGSGSGTDFTLSINSVESEDIAAYYCQHSYSWPWTFGGGTKLEIKR
B5: anti-ETAR antibody A-2 (antibody, V domains shown)
VH: QIQLVQSGAELAKPGASVRMSCETSGYTFTSYWIHWIKERPGQGLEWIGYINPDTDYSEYNQKFKDKARLTADKSSTTAYMELNSLTFDDSAVYYCASAGYYFFDFWGQGTTLTVSS
VL: DIQMTQSPASLSTSVGETVTITCRASENIYSYLAWYQQRQGKSPHLLVNNAKTLAEGVPSRFSGSGSGTHFSLRISGLQPEDFGSYYCQHHYGIPFTFGGGTKLSIKR
notes: also called L2H2

Legend:
[1] = molecular target: T1, human endothelin A receptor (hETAR); assay: FACS on CHO-DHFR-ETAR cells against CHO-DHFR- cells
Method: PBS containing 10 mM EDTA was used to detach and collect 10⁵ CHO-DHFR-hETAR cells into a 1.5 mL EP tube. The supernatant was removed after centrifugation and the negative control sample was resuspended with a loading buffer (PBS, 2% FBS). For the positive control, 200 μL antibody supernatant was added to resuspension cells and incubation at room temperature; the cells were then centrifuged at 1500 rpm to remove the supernatant, washed with a FACS loading buffer and centrifuged again. The cells were resuspended with addition (200 μL/well) of a FITC labeled goat anti-mouse fluorescent antibody at 1:50 dilution (BD Pharmingen) and incubated at room temperature for 30 min in the dark. Supernatant was removed after centrifugation, cells were washed with FACS loading buffer, centrifuged again and resuspended with the loading buffer for analysis.

[2] = molecular target: T1, human endothelin A receptor (hETAR); assay: cell-based or functional assay

| Binder | binding result [1] | calcium flux assay, inhibition of human ETAR (IC50) [2] [nM] |
| --- | --- | --- |
| B1 | binds | – |
| B2 | – | 87.8 |
| B3 | binds | – |
| B4 | – | 37.9 |
| B5 | binds | – |
